System: peptide library, one residue held at a place counted from the S/T acceptor
Assay: relative phosphorylation of the sub-library (ratio to the mean residue at this position); higher = residue favoured
Outline: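 In 384-well plates, purified recombinant kinases (human or orthologue constructs) were incubated for 90 min under kinase-specific conditions with 50 μM biotinylated degenerate peptide sub-libraries and 50 μM ATP spiked with γ-32P-ATP. Each sub-library fixed a single residue at one position around a central Ser/Thr. Relative sub-library phosphorylation, measured by phosphorimaging and densitometry of streptavidin membrane spots, is given as a ratio to the mean residue at that position.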

MAP3K15, construct: aa631-922, human, sequence (Q6ZN16 631-922, looked up): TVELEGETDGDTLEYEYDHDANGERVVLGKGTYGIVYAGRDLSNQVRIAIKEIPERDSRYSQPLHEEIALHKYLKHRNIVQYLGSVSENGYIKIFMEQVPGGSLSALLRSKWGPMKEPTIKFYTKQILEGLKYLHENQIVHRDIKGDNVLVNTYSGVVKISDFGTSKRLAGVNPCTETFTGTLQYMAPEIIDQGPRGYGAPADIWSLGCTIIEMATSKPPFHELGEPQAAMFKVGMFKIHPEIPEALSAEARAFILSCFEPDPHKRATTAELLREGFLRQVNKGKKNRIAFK
MAPKAPK5, construct: Full length, human, sequence (Q8IW41 whole entry, looked up): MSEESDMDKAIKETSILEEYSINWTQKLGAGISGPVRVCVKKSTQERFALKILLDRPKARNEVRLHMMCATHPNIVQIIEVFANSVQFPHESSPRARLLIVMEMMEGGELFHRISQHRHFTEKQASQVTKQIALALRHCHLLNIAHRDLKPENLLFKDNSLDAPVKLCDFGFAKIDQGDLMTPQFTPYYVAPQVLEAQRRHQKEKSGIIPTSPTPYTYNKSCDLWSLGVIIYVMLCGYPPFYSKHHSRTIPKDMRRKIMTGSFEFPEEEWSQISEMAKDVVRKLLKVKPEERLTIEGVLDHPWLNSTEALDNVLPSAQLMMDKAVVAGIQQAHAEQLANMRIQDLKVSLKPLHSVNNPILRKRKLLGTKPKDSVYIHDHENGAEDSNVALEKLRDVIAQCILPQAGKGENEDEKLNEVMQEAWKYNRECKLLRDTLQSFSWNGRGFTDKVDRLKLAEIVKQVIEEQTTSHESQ

MAPKAPK5, construct: Full length, human (from UniProt Q8IW41)
relative phosphorylation
Conditions | at +1 | at +2 | at +3 | at +4 | at -1 | at -2 | at -3 | at -4 | at -5
A fixed | 0.697 | 1.12 | 1.09 | 0.728 | 0.899 | 1.63 | 0.654 | 0.868 | 0.78
D fixed | 0.317 | 1.3 | 0.82 | 1.17 | 0.706 | 0.282 | 0.157 | 0.486 | 0.433
E fixed | 0.474 | 1.29 | 0.757 | 1.01 | 0.557 | 0.442 | 0.171 | 0.864 | 0.313
F fixed | 1.17 | 0.746 | 1.48 | 0.96 | 0.965 | 0.679 | 0.639 | 1.11 | 1.79
G fixed | 0.396 | 0.947 | 0.903 | 1.05 | 0.427 | 1.07 | 0.5 | 0.658 | 0.527
H fixed | 1.13 | 1.11 | 1.01 | 1.17 | 1.22 | 0.742 | 1.14 | 1.03 | 0.763
I fixed | 1.38 | 0.921 | 0.694 | 0.883 | 1.18 | 0.522 | 0.228 | 0.834 | 1.24
K fixed | 0.641 | 0.729 | 0.646 | 0.917 | 0.966 | 0.769 | 0.754 | 1.23 | 0.777
L fixed | 1.02 | 0.704 | 0.819 | 0.794 | 1.33 | 1.16 | 0.521 | 1.19 | 1.59
M fixed | 1.15 | 1 | 1.05 | 0.912 | 1.8 | 1.77 | 0.816 | 1.27 | 1.27
N fixed | 0.552 | 1.08 | 0.687 | 0.986 | 1.09 | 0.903 | 0.341 | 0.642 | 0.633
P fixed | 0.338 | 0.956 | 1.46 | 1.25 | 0.529 | 0.292 | 0.322 | 0.512 | 0.748
Q fixed | 1.13 | 1.23 | 0.672 | 0.898 | 0.935 | 2.85 | 0.696 | 0.93 | 0.62
R fixed | 0.931 | 0.972 | 0.602 | 0.968 | 1.38 | 1.55 | 7.97 | 1.32 | 1.28
V fixed | 1.84 | 1.24 | 1.1 | 0.768 | 1.04 | 0.608 | 0.267 | 0.813 | 0.894
W fixed | 2.06 | 0.716 | 1.48 | 1.41 | 0.822 | 0.861 | 0.935 | 1.82 | 1.89
Y fixed | 1.78 | 0.942 | 1.73 | 1.14 | 1.17 | 0.862 | 0.885 | 1.43 | 1.47
pThr fixed | 0.688 | 0.697 | 0.784 | 1.49 | 0.462 | 0.387 | 0.267 | 0.599 | 0.61
pTyr fixed | 2.04 | 1.96 | 1.2 | 1.41 | 1.28 | 1.36 | 0.297 | 1.26 | 0.914

MAP3K15, construct: aa631-922, human (from UniProt Q6ZN16)
relative phosphorylation
Conditions | at +1 | at +2 | at +3 | at +4 | at -1 | at -2 | at -3 | at -4 | at -5
A fixed | 0.514 | 0.74 | 1.02 | 0.926 | 1.01 | 1.79 | 1.14 | 1.02 | 0.99
D fixed | 0.2 | 0.473 | 0.377 | 0.494 | 0.459 | 0.498 | 0.88 | 0.771 | 0.79
E fixed | 0.257 | 0.337 | 0.401 | 0.534 | 0.471 | 0.513 | 0.73 | 0.739 | 0.743
F fixed | 1.94 | 1.79 | 0.942 | 0.898 | 0.745 | 0.735 | 0.771 | 0.855 | 1.1
G fixed | 0.39 | 0.733 | 1.07 | 1.07 | 2.13 | 1.26 | 1.04 | 1.29 | 1.24
H fixed | 1.08 | 1.01 | 1.04 | 1.04 | 0.94 | 0.852 | 1.07 | 0.963 | 1.17
I fixed | 1.94 | 0.567 | 1.09 | 1.13 | 0.415 | 0.859 | 0.687 | 0.668 | 0.761
K fixed | 0.39 | 1.48 | 1.14 | 1.82 | 1.43 | 0.864 | 1.18 | 1.06 | 1.05
L fixed | 1.41 | 0.76 | 1.01 | 0.885 | 0.828 | 0.983 | 0.799 | 0.788 | 0.759
M fixed | 1.18 | 0.952 | 1.02 | 0.926 | 0.963 | 1.07 | 0.837 | 0.896 | 0.929
N fixed | 0.439 | 0.782 | 0.971 | 0.91 | 1.28 | 1.26 | 1.18 | 1.19 | 0.988
P fixed | 0.352 | 0.676 | 1.08 | 0.971 | 1.15 | 1.63 | 1.6 | 1.37 | 1.2
Q fixed | 0.604 | 0.79 | 0.917 | 1.1 | 1.07 | 1.13 | 1.26 | 1.1 | 1.08
R fixed | 0.481 | 1.7 | 1.39 | 1.2 | 1.73 | 0.885 | 1.21 | 1.15 | 1.03
V fixed | 1.84 | 0.617 | 1.12 | 0.866 | 0.524 | 1.13 | 0.776 | 0.888 | 1.24
W fixed | 1.83 | 1.02 | 1.19 | 1.15 | 0.745 | 0.693 | 0.917 | 1.08 | 1.02
Y fixed | 2.16 | 2.58 | 1.24 | 1.07 | 1.12 | 0.848 | 0.925 | 1.18 | 0.915
pThr fixed | 0.588 | 0.497 | 0.73 | 0.394 | 0.639 | 1.06 | 1.04 | 0.928 | 1.09
pTyr fixed | 0.529 | 0.403 | 0.951 | 0.582 | 0.832 | 0.888 | 1.02 | 0.936 | 1.2
